Blank lines part the entries; values can stand above or below the binder they belong to.
B3: soluble BTN3A1 ectodomain (IgV-IgC), homodimer (ligand)
chain: not shown
notes: C-terminal biotin ligase (AviTag) and His6 tags; Analyte or immobilised ligand in SPR; streptavidin-PE tetramer in flow cytometry; also called BTN3A1 ectodomain homodimer; full-length BTN3A1 ectodomain

What was measured:
[1] = biological target: T1, BTN2A1 ectodomain homodimer, disulfide-linked (C-terminal Cys247, acidic or basic leucine zipper) (human, UniProt Q7KYR7 29-248; Q7KYR7 29-248); assay: SPR, equilibrium; BTN2A1 homodimer immobilised, soluble BTN3A1 IgV domain injected
T1 construct: Biotinylated and immobilised on a streptavidin chip in SPR; also called immobilized BTN2A1 homodimer; immobilised BTN2A1 ectodomain homodimer; not shown: linker and acidic leucine zipper; linker and basic leucine zipper
T1 sequence 1: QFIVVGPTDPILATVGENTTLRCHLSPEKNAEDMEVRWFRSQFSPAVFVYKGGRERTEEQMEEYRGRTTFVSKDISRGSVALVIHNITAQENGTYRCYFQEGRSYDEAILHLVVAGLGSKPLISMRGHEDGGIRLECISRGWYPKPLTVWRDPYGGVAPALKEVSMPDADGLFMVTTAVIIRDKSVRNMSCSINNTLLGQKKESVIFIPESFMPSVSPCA
T1 sequence 2: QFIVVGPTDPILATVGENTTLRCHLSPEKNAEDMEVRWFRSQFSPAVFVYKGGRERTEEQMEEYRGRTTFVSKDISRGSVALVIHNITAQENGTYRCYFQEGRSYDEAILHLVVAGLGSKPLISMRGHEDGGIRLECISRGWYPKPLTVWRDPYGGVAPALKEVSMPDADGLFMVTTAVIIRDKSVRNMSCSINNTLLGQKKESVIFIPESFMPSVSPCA

[2] = biological target: B3; assay: SPR, soluble monomeric BTN3A1 IgV domain over immobilised BTN3A1 homodimer
Protocol: SPR experiments were conducted at 25° C. on a Biacore T200 instrument (GE Healthcare) using 10 mM HEPES-HCl (pH 7.4), 150 mM NaCl, 3 mM EDTA, and 0.05% Tween 20 buffer. Biotinylated BTN ectodomains were immobilized to 1,500-2,000 resonance units (RU) on a Biacore sensor chip SA pre-immobilized with streptavidin. Soluble BTN molecules or G115 γδTCR were two-fold serially diluted and simultaneously injected over test and control surfaces at a rate of 30 μl/min.

[3] = biological target: T1, BTN2A1 ectodomain homodimer, …; assay: SPR; BTN2A1 ectodomain homodimer immobilised, soluble BTN2A1 ectodomain injected
Protocol: (§1) SPR experiments were conducted at 25° C. on a Biacore T200 instrument (GE Healthcare) using 10 mM HEPES-HCl (pH 7.4), 150 mM NaCl, 3 mM EDTA, and 0.05% Tween 20 buffer. Biotinylated BTN ectodomains were immobilized to 1,500-2,000 resonance units (RU) on a Biacore sensor chip SA pre-immobilized with streptavidin. Soluble BTN molecules or G115 γδTCR were two-fold serially diluted and simultaneously injected over test and control surfaces at a rate of 30 μl/min. After subtraction of data from the control flow cell (BTN1A1) and blank injections, interactions were analyzed using Biacore T200 evaluation software (GE Healthcare), Scrubber (Biologic) and Prism version 9 (GraphPad), and equilibrium dissociation constants were derived at equilibrium.

[4] = biological target: B3; assay: SPR, equilibrium; BTN3A1 homodimer immobilised, soluble monomeric BTN2A1 ectodomain injected
Protocol: as §1

[5] = biological target: T1, BTN2A1 ectodomain homodimer, …; assay: SPR, equilibrium; disulfide-linked BTN2A1 homodimer immobilised, soluble BTN3A1 ectodomain injected
Protocol: as §1

- Kd [1]: 1.1 mM
- binding result [2]: no binding (tested: 1,590 µM)
B1: monomeric BTN3A1 IgV domain (ligand)
chain: not shown

- binding result [3]: no binding
- Kd [4]: ~1.8 mM
B2: soluble BTN2A1 ectodomain lacking Cys247 (monomeric) (ligand)
chain: QFIVVGPTDPILATVGENTTLRCHLSPEKNAEDMEVRWFRSQFSPAVFVYKGGRERTEEQMEEYRGRTTFVSKDISRGSVALVIHNITAQENGTYRCYFQEGRSYDEAILHLVVAGLGSKPLISMRGHEDGGIRLECISRGWYPKPLTVWRDPYGGVAPALKEVSMPDADGLFMVTTAVIIRDKSVRNMSCSINNTLLGQKKESVIFIPESFMPSVSP
notes: C-terminal biotin ligase (AviTag) and His6 tags; Used as SPR analyte and in crystals; also called monomeric BTN2A1 ectodomain; full-length BTN2A1 ectodomain

Binder: B3
- Kd [5]: 500 µM

From US20250179144A1 (UNIVERSITY OF MELBOURNE, published 2025)
